Reference: patent US20110135636A1 (SYMPHOGEN A S, published 2011)

Tests used:
[1] = molecular target: T1, recombinant human EGFR extracellular domain with 6xHis (human, UniProt P00533 25-645); experiment: SPR (BIAcore 2000); IgG captured on anti-human Fc, soluble EGFR ECD injected; Scatchard analysis
T1 construct: In-house produced; also called 6xHis EGFR ECD; soluble human EGFR ECD; not shown: 6xHis tag
Description: Kinetic analysis of the full length IgG antibodies of the invention was performed on a BIAcore 2000, employing an assay as described in (Canziani, Klakamp, et al. 2004, Anal. Biochem, 325:301-307) allowing measurement of monovalent affinities of whole IgG molecules against soluble antigen. […] The chip surface was regenerated in between cycles by stripping the captured antibody/antigen complexes with a 10 second injection of 100 mM H₃PO₄. […] The association rate constant (ka) and dissociation constant (kd) were evaluated globally from the generated sensograms with the BIA evaluation software 4.1 provided by the manufacturer.

[2] = molecular target: T2, full length human EGFR expressed on the cell surface (human, UniProt P00533 25-1210); experiment: cell ELISA, IgG titrated on unfixed A431-NS cells after saturation with Fab 1024; given as ED50
T2 construct: whole, on cells; also called EGFR on A431-NS cells; EGFR on HN5 cells
Description: Cell ELISA: The ELISA was performed essentially as described in example 15 with modifications. Cells were left unfixed to allow conformational EGFR flexibility after antibody additions. Briefly, 10,000 A431-NS cells were grown in 96 well ELISA plates containing DMEM with added 0.5% FCS and 1% P/S at 37° C., 5% CO₂ overnight. […] 25 μl DMEM containing 1% BSA was added to wells used for testing of IgG antibodies without added Fab fragments. […] Next, wells were washed four times with PBS and 50 μl of a secondary monoclonal Mouse-anti-Human (Fc specific) HRP conjugate diluted 1:5000 in DMEM containing 1% BSA was added and incubated on ice for 30 min. Finally wells were washed four times with PBS and plates developed by adding 50 μl/well TMB substrate and read at 620 nm every 5-15-30 min. After incubation with substrate the reaction was stopped by addition of 1 M H₂SO₄ and absorbance read at 450 nm. The functional affinity expressed as ED50 values were calculated by subtraction of the average background binding with secondary reagent only, followed by normalization of the binding curves by plotting % maximal binding relative to each antibody tested.
Investigations of antibody induced binding enhancements were determined by concurrent ELISA binding studies, employing same secondary antibody reagent and incubation times.

B1: antibody 992 (antibody, human IgG1, kappa, V domains shown)
VH: EVQLQQPGSELVRPGASVKLSCKASGYTFTSYWMHWVKQRPGQGLEWIGNIYPGSRSTNYDEKFKSKATLTVDTSSSTAYMQLSSLTSEDSAVYYCTRNGDYYVSSGDAMDYWGQGTSVTVSS
VL: DIQMTQTTSSLSASLGDRVTISCRTSQDIGNYLNWYQQKPDGTVKLLIYYTSRLHSGVPSRFSGSGSGTDFSLTINNVEQEDVATYFCQHYNTVPPTFGGGTKLEIKR
notes: Chimeric mouse/human IgG1 kappa; the VL entry includes the human kappa constant region
[1]
  Kd: 170 nM
[2]
  EC50: 0.5 nM
